Experimental data taken from article doi:10.1101/2024.03.27.586411 (2024).
Where “and” joins values, the source holds several entries; their conditions need not be identical. Equal entries are not always repeated.

T1: PDCoV_(IL121_2014) receptor-binding domain (Porcine deltacoronavirus (PDCoV), …)
T1 chain: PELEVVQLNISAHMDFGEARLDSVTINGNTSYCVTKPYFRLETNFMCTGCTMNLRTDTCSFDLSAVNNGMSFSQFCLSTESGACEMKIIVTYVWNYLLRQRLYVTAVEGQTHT


Tests used:
[1] = target: PDCoV S_(SD2018) ectodomain trimer (Porcine deltacoronavirus (PDCoV), isolate SD2018/300); experiment: cryo-EM structure; 1.5 uM PDCoV S SD2018/300 with 4.5 uM PD41 Fab, 1 hour at 4 C; 3D classification into four classes, local refinement of the RBD:PD41 region
[2] = target: human APN ectodomain, Fc fusion (human) (UniProt P15144); experiment: BLI; RBD to hAPN-Fc, series from 5 uM two-fold down to 39 nM; apparent KD; Octet Red, 30 C, 10 x Kinetics Buffer; 1:1 binding model; who was immobilised is not told for this series
Chain of human APN ectodomain, Fc fusion (human) (P15144 66-967): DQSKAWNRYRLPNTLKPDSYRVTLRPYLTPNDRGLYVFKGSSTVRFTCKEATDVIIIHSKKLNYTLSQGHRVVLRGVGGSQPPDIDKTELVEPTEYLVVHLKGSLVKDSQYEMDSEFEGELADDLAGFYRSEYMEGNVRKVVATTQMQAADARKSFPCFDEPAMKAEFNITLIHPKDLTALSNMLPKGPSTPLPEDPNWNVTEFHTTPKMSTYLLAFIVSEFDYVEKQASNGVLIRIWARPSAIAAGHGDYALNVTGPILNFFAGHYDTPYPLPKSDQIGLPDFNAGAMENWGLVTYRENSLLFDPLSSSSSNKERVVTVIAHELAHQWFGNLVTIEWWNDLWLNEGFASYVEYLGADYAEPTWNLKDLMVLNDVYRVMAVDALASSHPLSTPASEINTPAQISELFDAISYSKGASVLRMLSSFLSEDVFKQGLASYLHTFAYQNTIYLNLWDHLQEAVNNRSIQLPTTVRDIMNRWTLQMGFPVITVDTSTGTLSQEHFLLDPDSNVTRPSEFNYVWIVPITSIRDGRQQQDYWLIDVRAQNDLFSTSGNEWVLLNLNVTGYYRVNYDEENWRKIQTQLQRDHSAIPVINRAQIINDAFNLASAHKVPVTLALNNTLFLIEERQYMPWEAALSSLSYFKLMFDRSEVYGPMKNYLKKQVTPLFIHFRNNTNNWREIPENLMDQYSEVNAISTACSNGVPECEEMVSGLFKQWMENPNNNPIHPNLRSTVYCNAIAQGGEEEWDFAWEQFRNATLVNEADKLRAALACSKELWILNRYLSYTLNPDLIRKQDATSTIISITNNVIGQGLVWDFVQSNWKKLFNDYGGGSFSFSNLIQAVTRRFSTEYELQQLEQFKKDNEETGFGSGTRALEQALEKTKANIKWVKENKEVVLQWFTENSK

[3] = target: T1, PDCoV_(IL121_2014) receptor-binding …; experiment: BLI
[4] = target: T1, PDCoV_(IL121_2014) receptor-binding …; experiment: BLI

Molecule | stoichiometry N [1] | fold greater affinity than RBD (IL121 2014) [2] | koff [3] | Kd [4]
PDCoV S_(SD2018) ectodomain trimer (natural protein) | 3 | – | – | –
PDCoV SD2018/300 receptor-binding domain (domain or fragment) | – | 5 fold | – | –
PD33 Fab fragment (Fab, V domains shown) VH: EVQLVESGGGLVQPGGSLRLSCAASGFTFSHYTMNWVRQAPGRGLEWVSSITTSSNFIYYADSVKGRFTISRDNTKNSLYLQMNSLSAEDTAVYFCARGGWELSYFDFWGQGTLVTVSS VL: DIVMTQSPLSLPVTLGQPASISCRSSQSLVYSDGNTFLNWFQQRPGQSPRRLIYKVSNRDSGVPDRFSGSGSGTDFTLRISRVEAEDVGFYYCMQGTHWPPTFGPGTKVEIK | – | – | 0.000586 s⁻¹ and 0.000542 s⁻¹ | 4.36 nM
PD41 Fab fragment (Fab, V domains shown) VH: HSQLQESGPGLVKPSQTLSLTCTVSGGSISSAGYYWNWIRQHPGKGLEWIGYIYYSGNTYYNPSLKSRVTISVDTSKSQFSLKLNSVTAADTAVYYCARKIVNWFDPWGQGTLVTVSS VL: QSALTQPASVSGSPGQSITISCTGTSSDVGGYNYVSWYQQHPGKAPKLMIYDVSERPSGVSNRFSGSKSGNTASLTISGLQAEDEADYFCCSYAGYTTYVVFGGGTQLTVL | – | – | 0.00177 s⁻¹ and 0.002 s⁻¹ | 22.6 nM and 37.2 nM
